Reference: patent US20130164299A1 (CENTRE NATIONAL DE LA RECHERCHE SCIENTIFIQUE, published 2013)

T1: LLT1-Fc fusion protein (human, UniProt Q9UHP7 60-191, limits assumed)
T1 construct: also called LLT1-hFc; LLT-Fc; not shown: human Fc (hFc)
T1 sequence: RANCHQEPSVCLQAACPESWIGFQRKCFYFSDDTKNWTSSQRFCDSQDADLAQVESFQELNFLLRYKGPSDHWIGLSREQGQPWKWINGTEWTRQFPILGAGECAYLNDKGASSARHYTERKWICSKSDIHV

T2: AICL, expressed on transfected 293T cells (UniProt Q92478 1-149, limits assumed)
T2 construct: whole, on cells; also called AICL-transfectants
T2 sequence (looked up): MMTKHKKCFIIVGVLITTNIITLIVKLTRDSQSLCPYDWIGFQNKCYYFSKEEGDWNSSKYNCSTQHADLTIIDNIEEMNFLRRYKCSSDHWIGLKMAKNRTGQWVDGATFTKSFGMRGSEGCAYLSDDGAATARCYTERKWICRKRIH

T3: CLEC2A-Fc protein (UniProt Q6UVW9 49-174)
T3 construct: Negative control coat in the ELISA; not shown: Fc portion recognised by anti-human Ig
T3 sequence (looked up): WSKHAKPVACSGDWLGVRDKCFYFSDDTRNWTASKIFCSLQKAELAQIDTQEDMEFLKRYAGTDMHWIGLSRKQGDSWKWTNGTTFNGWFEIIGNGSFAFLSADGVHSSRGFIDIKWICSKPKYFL

T4: lectin-like transcript 1 (LLT1), recombinantly expressed on cells (human, UniProt Q9UHP7 1-191)
T4 construct: In the Western blot the protein stood in cell extracts, in the IHC validation in fixed cells; also called CLEC2D; C1R-LLT1 transfectants
T4 sequence: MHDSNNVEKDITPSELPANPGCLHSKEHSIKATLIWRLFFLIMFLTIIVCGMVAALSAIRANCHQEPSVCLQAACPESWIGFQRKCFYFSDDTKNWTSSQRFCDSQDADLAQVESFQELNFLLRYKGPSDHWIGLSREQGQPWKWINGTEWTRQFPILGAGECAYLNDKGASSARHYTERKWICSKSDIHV

B1: anti-LLT12F1A5 (antibody, mouse IgG1, V domains shown)
VH: EVQLQQSGAELVRSGASVKLSCTASGFNIKDYYMHWVKQRPEQGLEWIGWIDPENGDTEYAPKFQGKATVTADTSSNTVYLQLSSLTSEDTAVYYCNGEIITTTAWFTYWGQGTLVTVSA
VL: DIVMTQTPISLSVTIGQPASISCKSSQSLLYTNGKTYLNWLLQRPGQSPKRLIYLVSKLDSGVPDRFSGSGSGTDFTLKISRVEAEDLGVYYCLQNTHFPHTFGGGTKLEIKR
notes: also called anti-LLT2F1; anti-LLT2F1A5
B2: anti-LLT14F (antibody, mouse IgG1, V domains shown)
VH: EVQLVESGGGLVQPGGSLKLSCAASGFTVSSYGMSWVRQIPDKRLELVATINSNGGRTFYPDSVKGRFTISRDNAQNTLYLQMSSLKSEDTAMYYCARDGGYWAHFDYWGQGTTLTVSS
VL: DVLMTQTPLSLPVSLGDQASISCRSSQSIVHSNGNTYLEWYLQKPGQSPKLLIYKVSNRFSGVPDRFSGSGSGTDFTLKISRVEAEDLGVYYCFQGSHVPWTFGGGTKLEIKR
notes: also called anti-LLT14F68; anti-LLT1-4F68
B3: anti-LLT14F-hIgG4 (antibody, V domains shown)
VH: B2 VH
VL: B2 VL
notes: Murine variable domains of anti-LLT14F on human kappa/IgG4 scaffold; also called chimeric mouse/human anti-LLT14F; ChimLLT14F; not shown: human IgG4 heavy chain constant region (CH) with hinge mutation S241P; human kappa light chain constant domain (CL)

Experiments:
LLT1-Fc fusion protein [1] = target: T1, LLT1-Fc fusion protein; experiment: SPR (Biacore T100, 25 °C); LLT1-Fc immobilised on CM5 chip (500 RU), antibody 3.125 to 100 nM in solution
Procedure: Surface plasmon resonance measurements were performed on a Biacore T100 apparatus (Biacore) at 25° C. In all Biacore experiments, HBS buffer supplemented with 0.05% surfactant P20 served as running buffer and sensorgrams were analyzed with Biaevaluation software. Recombinant LLT1-Fc fusion protein (described by Aldemir et al in Journal of Immunology, 2005 vol. 176: 7791-7795) were immobilized covalently to carboxyl groups in the dextran layer on a Sensor Chip CM5 (Biacore). The sensor chip surface was activated with EDC/NHS(N-ethyl-N′-(3-dimethylaminopropyl) carbodiimidehydrochloride and N-hydroxysuccinimide, Biacore). Proteins diluted in coupling buffer (10 mM acetate, pH 4.5) were injected. Deactivation of the remaining activated groups was performed using 100 mM ethanolamine pH 8 (Biacore).
Anti-LLT12F1A5 was tested in a range of concentrations from 3.125 to 100 nM for binding to immobilized LLT1-Fc protein (500 RU).

[2] = target: T2, AICL, expressed on transfected 293T …; experiment: flow cytometry on 293T cells transfected with AICL
CLEC2A-Fc protein = target: T3, CLEC2A-Fc protein; experiment: ELISA, coated Fc fusion protein
Procedure: Anti-LLT12F1A5 and anti-LLT14F were compared to mAb's 4C7 and MAB3480 with respect to binding to CLEC2D (LLT1) fusion proteins in the ELISA application. Wells were coated with Fc fusion proteins representing full-length CLEC2D or splice variant 2 and 4 hereof (CLEC2D-iso2 and -iso4, respectively). Full-length CLEC2D contains exons 1, 2, 3, 4a and 5, whereas isoforms 2 and 4 contain exons 1, 2, 3, 4a, 4b, 5 and exons 1, 2, 3, 5, respectively. Coated wells were incubated with anti-LLT12F1A5, anti-LLT14F, MAB3480 or 4C7 antibodies. Wells not coated with protein (PBS) or coated with CLEC2A-Fc protein were included as negative controls. Antibody binding was detected by HRP-conjugated anti-mouse Ig secondary antibody and chromogen. HRP-conjugated anti-human Ig antibody was included as a positive control that recognized the Fc portion of both fusion proteins.

LLT1-Fc fusion protein [3] = target: T1, LLT1-Fc fusion protein; experiment: blocking assay by flow cytometry: binding of LLT1-Fc multimers to CD161 on 293T-CD161 cells in the presence of the antibody
Procedure: A multimeric complex was generated by incubating the LLT1-Fc fusion protein with biotinylated protein A (Pierce) at a molar ratio of 1:1. Saturating amounts of purified hIgG were added to block the remaining free protein A sites. A multimer control was generated using protein A-biotin saturated with purified hIgG. These complexes were conjugated to streptavidin-allophycocyanin (BD Biosciences). […] Anti-LLT14F (4F) or control IgG1 (ctrl IgG1) was added at concentrations 0.01-200 μg/ml. For comparison, anti-LLT12F1 (2F1A5) and AF3480 were tested in parallel with 4F in this assay. Binding of LLT1-multimers was evaluated by flow cytometry.

[4] = target: T4, lectin-like transcript 1 (LLT1), …; experiment: flow cytometry on C1R-LLT1 transfectants, anti-mouse IgG secondary antibody
Procedure: (§1) C1R-LLT1 transfectants and parental C1R cells were washed in PBS containing 1% FCS and incubated with anti-LLT14F or anti-LLT14F-hIgG4 antibody at concentrations 0.0003-10 μg/ml as indicated in FIG. 4 for 30 min at 4° C. followed by incubation with fluorochrome-conjugated anti-mouse or anti-human IgG secondary antibodies, respectively. Samples were washed three times in PBS containing 1% FCS and analysed by flow cytometry.

[5] = target: T4, lectin-like transcript 1 (LLT1), …; experiment: flow cytometry on C1R-LLT1 transfectants, anti-human IgG secondary antibody
Procedure: as §1

| Binder | Kd (LLT1-Fc fusion protein [1]) [nM] | binding result [2] | binding result (CLEC2A-Fc protein) | IC50 (read off the curve) (LLT1-Fc fusion protein [3]) [µg/mL] | EC50 (read off the curve) [4] [µg/mL] | EC50 (read off the curve) [5] [µg/mL] |
| --- | --- | --- | --- | --- | --- | --- |
| B1 | 1.24 | no binding | no binding | – | – | – |
| B2 | – | no binding | no binding | ~6 | ~0.04 | – |
| B3 | – | – | – | – | – | ~0.05 |
